Assay results published in US20110135636A1 (SYMPHOGEN A S, published 2011).

Experiments:
[1] = biological target: T1, EGFR-Fc (recombinant EGFR ECD-Fc chimera, R&D Systems 344-ER) (human, UniProt P00533 25-645); assay: SPR (BIAcore 2000); Fab over immobilized EGFR ECD-Fc
T1 construct: extracellular domain; Bought; also called immobilized Human EGFR ECD; immobilized receptor; not shown: human IgG Fc

[2] = biological target: T2, full length human EGFR expressed on the cell surface (human, UniProt P00533 25-1210); assay: cell ELISA, Fab titrated on paraformaldehyde-fixed A431-NS cells
T2 construct: whole, on cells; also called EGFR on A431-NS cells; EGFR on HN5 cells
Method: (§1) Cell ELISA: The relative binding affinities defined as the molar concentration giving the half maximal OD (ED50) were determined by antibody titrations on A431-NS cells. Briefly, 10,000 A431-NS cells were grown in 96 well ELISA plates containing DMEM with added 0.5% FCS and 1% P/S at 37° C., 5% CO₂ overnight. […] Then 50 μl of a secondary Goat-anti-Human (Fab specific) HRP conjugate diluted 1:5000 in DMEM containing 1% BSA was added and incubated on ice for 30 min. Finally wells were washed four times with PBS and plates developed by adding 50 μl/well TMB Plus substrate and read at 620 nm every 5-15-30 min. After incubation with substrate the reaction was stopped by addition of 1 M H₂SO₄ and absorbance read at 450 nm. The functional affinity expressed as ED50 values were calculated by subtraction of the average background binding with secondary reagent only, followed by normalization of the binding curves by plotting % maximal binding relative to each antibody tested.

[3] = biological target: T1, EGFR-Fc (recombinant EGFR ECD-Fc …); assay: SPR (BIAcore 2000); Fab over immobilized EGFR ECD-Fc; Scatchard analysis
[4] = biological target: T2, full length human EGFR expressed on the …; assay: cell ELISA, Fab titrated on paraformaldehyde-fixed A431-NS cells, against SPR
Method: as §1

[5] = biological target: T2, full length human EGFR expressed on the …; assay: cell ELISA, Fab titrated on paraformaldehyde-fixed A431-NS cells; given as ED50
Method: as §1

[6] = biological target: T3, recombinant human EGFR extracellular domain with 6xHis (human, UniProt P00533 25-645); assay: SPR competition, competitor 1024
T3 construct: In-house produced; also called 6xHis EGFR ECD; soluble human EGFR ECD; not shown: 6xHis tag
Method: (§2) SPR analysis was performed on a Biacore 3000 machine containing four flow cells. A CM5 Biacore chip was conjugated with 10,000 Resonance units (Ru) polyclonal anti-His antibody to flow cells 1-4 according to the manufacturer's instructions. […] Immediately after antigen injection the maximal binding of the Anti-EGFR mAb without competition was established in each flow cell during a reference run. Briefly 5 μl antibody at a concentration of 40 μg/ml was injected over all flow cells with captured EGFR followed by stripping of the antibody/antigen complex with a low pH acid wash (10 sec. contact time with 10 mM Glycine-HCl, pH2). After the determination of Anti-EGFR antibody maximal binding to each flow cell, a competition run was performed during the same Biacore cycle. Flow cells were first saturated with EGFR ECD antigen followed by injection of different reference antibodies or Anti-EGFR antibodies into separate flow cells using the same antigen saturating conditions as outlined above. This step was immediately followed by a second injection of Anti-EGFR antibody over the flow cell saturated with EGFR antigen and competition antibody to minimize the dissociation of either antigen or blocking antibody. Then the antibody/antigen complexes were stripped off with a low pH acid wash (10 sec. contact time with 10 mM Glycine-HCl, pH 2) and the whole cycle beginning with the reference run was repeated with a new Anti-EGFR antibody. The degree of inhibition of tested Anti-EGFR antibodies were determined by comparing the Ru max value of the individual Anti-EGFR antibody before and after competition by introduction of report points recorded two seconds before and after injection of each sample.

[7] = biological target: T3, recombinant human EGFR extracellular …; assay: SPR competition, competitor 1042
Method: as §2

[8] = biological target: T3, recombinant human EGFR extracellular …; assay: SPR competition, competitor 1208
Method: as §2

[9] = biological target: T3, recombinant human EGFR extracellular …; assay: SPR competition, competitor 1254
Method: as §2

[10] = biological target: T3, recombinant human EGFR extracellular …; assay: SPR competition, competitor 1257
Method: as §2

[11] = biological target: T3, recombinant human EGFR extracellular …; assay: SPR competition, competitor 1260
Method: as §2

[12] = biological target: T3, recombinant human EGFR extracellular …; assay: SPR competition, competitor 1261
Method: as §2

[13] = biological target: T3, recombinant human EGFR extracellular …; assay: SPR competition, competitor 1277
Method: as §2

[14] = biological target: T3, recombinant human EGFR extracellular …; assay: SPR competition, competitor 1284
Method: as §2

[15] = biological target: T3, recombinant human EGFR extracellular …; assay: SPR competition, competitor 1308
Method: as §2

[16] = biological target: T3, recombinant human EGFR extracellular …; assay: SPR competition, competitor 1320
Method: as §2

[17] = biological target: T3, recombinant human EGFR extracellular …; assay: SPR competition, competitor 1344
Method: as §2

[18] = biological target: T3, recombinant human EGFR extracellular …; assay: SPR competition, competitor 1347
Method: as §2

[19] = biological target: T3, recombinant human EGFR extracellular …; assay: SPR competition, competitor 1449
Method: as §2

[20] = biological target: T4, Cynomolgus EGFR extracellular domain (Cynomolgus monkey (Macaca fascicularis), UniProt P55245 25-645 (rhesus entry)); assay: ELISA on cynomolgus EGFR ECD (Example 10)
T4 construct: Cloned without signal peptide; also called Cynomolgus rEGFR ECD; Cynomolgus EGFR ECD
Method: To verify that tested Anti-EGFR antibodies bound equally well to both Human and Cynomolgus EGFR ECD and accordingly warranting toxicology studies in Cynomolgus monkeys, serial four fold dilutions of antibodies beginning from 1 μg/ml were tested by ELISA for binding to recombinant Human and Cynomolgus EGFR ECD proteins. […] ELISA wells were coated with 50 μl/well of full length EGFR at a concentration of 1 μg/ml in PBS overnight at 4° C. The next morning wells were washed twice with PBS-T and blocked for one hour with 100 μl PBS-T-1% BSA at room temperature, followed by wash twice in PBS-T. Next 50 μl of serially diluted Anti-EGFR antibodies and control antibodies were added to wells and incubated for one hour at room temperature. After antibody incubation wells were washed five times with PBS-T, followed by incubation with 50 μl/well Streptavidin-HRP secondary reagent diluted 1:3000 in blocking buffer and incubation at room temperature for 30 min. Finally wells were washed five times with PBS-T and plates were developed by adding 50 μL/well TMB substrate and incubated at room temperature. After incubation the reaction was stopped by addition of 1 M H₂SO₄; 100 μl/well and plates were read at OD 450 nm.

[21] = biological target: T3, recombinant human EGFR extracellular …; assay: SPR competition, competitor Erbitux
Method: as §2

[22] = biological target: T3, recombinant human EGFR extracellular …; assay: SPR competition, competitor 1030corr
Method: as §2

[23] = biological target: T3, recombinant human EGFR extracellular …; assay: SPR competition, competitor 992 corr
Method: as §2

[24] = biological target: T3, recombinant human EGFR extracellular …; assay: SPR competition, competitor Vectibix
Method: as §2

[25] = biological target: T3, recombinant human EGFR extracellular …; assay: SPR (BIAcore 2000); IgG captured on anti-human Fc, soluble monovalent EGFR ECD injected
Method: Kinetic analysis of the full length IgG antibodies of the invention was performed on a BIAcore 2000, employing an assay as described in (Canziani, Klakamp, et al. 2004, Anal. Biochem, 325:301-307) allowing measurement of monovalent affinities of whole IgG molecules against soluble antigen. […] The chip surface was regenerated in between cycles by stripping the captured antibody/antigen complexes with a 10 second injection of 100 mM H₃PO₄. […] The association rate constant (ka) and dissociation constant (kd) were evaluated globally from the generated sensograms with the BIA evaluation software 4.1 provided by the manufacturer.

[26] = biological target: T2, full length human EGFR expressed on the …; assay: cell ELISA, Fab on A431-NS cells
Method: as §1

B1: Fab 992 (Fab, V domains shown, not shown: small tags and cut ends)
VH: EVQLQQPGSELVRPGASVKLSCKASGYTFTSYWMHWVKQRPGQGLEWIGNIYPGSRSTNYDEKFKSKATLTVDTSSSTAYMQLSSLTSEDSAVYYCTRNGDYYVSSGDAMDYWGQGTSVTVS
VL: DIQMTQTTSSLSASLGDRVTISCRTSQDIGNYLNWYQQKPDGTVKLLIYYTSRLHSGVPSRFSGSGSGTDFSLTINNVEQEDVATYFCQHYNTVPPTFGGGTKLEIKR
[1]
  t1/2: 0.2 min
[2]
  Log ED50: 1
[3]
  Kd: 150 nM
[4]
  fold lower monovalent functional affinity value on cells than tested with BIAcore: ≥ 15 fold
[5]
  EC50: 9.9 nM

B2: antibody 1254 (antibody, human IgG1, kappa, V domains shown)
VH: EVQLVESGGGLVKPGGSLKLSCAASGFAYSTYDMSWVRQTPEKRLEWVAYISSGGDAAYYPDTVKGRFTISRDNAKNTLYLQMSSLKSEDTAMYYCARSRYGNYGDAMDYWGQGTSVTVSS
VL: DVVMTQTPLSLPVSLGDQASISCRSSQSLVHSNGNTYLHWYLQKPGQSPKLLLYKVSNRFSGVPDRFSGSGSGTDFTLKISRVESEDLGVYFCSQNTHVYTFGGGTKLEIKR
notes: Chimeric IgG1 kappa; also called mAb 1254
[6]
  % inhibition: 6%
[7]
  % inhibition: 29%
[8]
  % inhibition: 108%
[9]
  % inhibition: 102%
[10]
  % inhibition: 7%
[11]
  % inhibition: 0%
[12]
  % inhibition: 6%
[13]
  % inhibition: 99%
[14]
  % inhibition: 6%
[15]
  % inhibition: -2%
[16]
  % inhibition: 6%
[17]
  % inhibition: 4%
[18]
  % inhibition: 3%
[19]
  % inhibition: 5%
[20]
  binding result: binds
[21]
  % inhibition: 44%
[22]
  % inhibition: 82%
[23]
  % inhibition: 106%
[24]
  % inhibition: 96%
[25]
  Kd: 12.7 nM
  koff: 0.001 s⁻¹
  kon: 81000 M⁻¹ s⁻¹
  t1/2: 11.3 min

B3: Fab 1024 (Fab, V domains shown, not shown: small tags and cut ends)
VH: QVQLQQPGAELVEPGGSVKLSCKASGYTFTSHWMHWVKQRPGQGLEWIGEINPSSGRNNYNEKFKSKATLTVDKSSSTAYMQFSSLTSEDSAVYYCVRYYGYDEAMDYWGQGTSVTVS
VL: DIVMTQAAFSNPVTLGTSASISCRSSKSLLHSNGITYLYWYLQKPGQSPQLLIYQMSNLASGVPDRFSSSGSGTDFTLRISRVEAEDVGVYYCAQNLELPYTFGGGTKLEIKR
[26]
  EC50 (read off the curve): ~2 nM
[1]
  Kd: 25.6 nM
  koff: 0.0049 s⁻¹
  kon: 190000 M⁻¹ s⁻¹
  t1/2: 2.3 min
[2]
  Log ED50: 0.3
[5]
  EC50: 2 nM
